Tests used:
Assay in all cases: CEACAM1 co-IP (PLA also mentioned)
Details in all cases: reference: full-length 4L CEACAM1; sites Y493,Y520
[1] = molecular target: SHP-1 (UniProt P29350)
[2] = molecular target: SYK (UniProt P43405)
[3] = molecular target: filamin A (FLNA) (UniProt P21333)

binding against the reference [1]: weaker
binding against the reference [2]: weaker
binding against the reference [3]: weaker
Substance: CEACAM1 (CEACAM1-4L) (from UniProt P13688) Y493F/Y520F
